Data set [1] deals with P5C reductase (Clostridioides difficile, UniProt Q180C5). Nature of the data set: spectrophotometric assay. The note with it: mere turnover. It counts as biochemical.
Substrate in data set [2]: O=C(O)[C@@H]1C[C@@H](O)CN1
The data set is described as follows: purified protein. It is filed as biochemical, Clostridioides difficile. The note with it: activated by t4LHypD-AE, SAM, acriflavine; anaerobic.

Substrate in data set [3]: C[C@@H](O)CO
Nature of the data set: purified protein. As to conditions: activated by PD-AE, SAM, 5-deazariboflavin; anaerobic.

Substrate in data set [4]: C[C@H](O)CO
Nature of the data set: purified protein. As to conditions: activated by PD-AE, SAM, 5-deazariboflavin; anaerobic.

As for `O=C(O)[C@@H]1CCC=N1` [Δ^1-pyrroline-5-carboxylate], the spectrophotometric assay result in data set [1] (NADH as reductant in the coupled assay) is “P5C reductase could interconvert P5C and L-proline”.
As for `O=C(O)[C@@H]1CCCN1` [L-proline], the spectrophotometric assay entry in data set [1] (reverse direction (interconversion with P5C)) is “P5C reductase could interconvert P5C and L-proline”.

B1: t4LHypD (trans-4-hydroxy-L-proline dehydratase, GRE Cluster 15) (Clostridioides difficile) (protein)
chain: MARGTFERTKKLREESINAEPHISIERAVLMTEAYKKYEGSVEIPVLRALSFKHYIENRTLSINDGELIVGEKGDSPNGAPTYPEICCHTMEDLEVMHNRDIINFSVSEEARKIHKEEIIPFWKKRQTRDKIINAMTPEWLAAYEAGMFTEFMEQRAPGHTVCGDTIYKKGFLDLKKDIEARLKELDFLNDLDAYNKKADLEAMAIACDAMVILGKRYAEKARQMAEEETDEAKKKDLLLIAETCDVVPAHKPETYHQAIQMYWFVHIGVTTELNIWDAFTPGRLDQHLNPFYERDVENGILDRDRAQELLECLWVKFNNQPAPPKVGITLKESSTYTDFANINTGGINPDGQDGVNEVSYIILDVMDEMKLIQPSSNVQISKKTPQKFLKRACEISRKGWGQPAFYNTEAIVQELMEAGKTIEDARLGGTSGCVETGCFGKEAYVLTGYMNIPKILELTLNNGYDPISKKQIGIETGDPRNFQSYEELFEAFKKQLHYMIDIKIEGNAVIENICAKHMPCPLMSTIVDDCIEKGKDYQRGGARYNTRYIQGVGIGTITDSLTAIKYNVFDKKKFDMDTLLKALDANFEGYEAILNLVSNKTPKYGNDDDYADEIMQEIFNAYYNEVTGRPTVCGGEYRVDMLPTTCHIYFGEIMGASPNGRLCAKPVSEGISPEKGGDTNGPTAVIKSCAKMDHIKTGGTLLNQRFAPSVVQGEKGLDNMANLVRAYFNMDGHHIQFNVFDKNVLLEAQKNPQDYKDLIVRVAGYSDHFNNLSRTLQDEIIGRTEQTF
Consider B1, for which, in data set [2], the Km was determined as 1.2 ± 0.1 mM and the turnover number (kcat) was 45 ± 1 s⁻¹.

B2: PD (propanediol dehydratase, GRE Cluster 16) (Roseburia inulinivorans) (protein)
chain: MGNYDSTPIAKSDRIKRLVDHLYAKMPEIEAARAELITESFKATEGQPVVMRKARAFEHILKNLPIIIRPEELIVGSTTIAPRGCQTYPEFSYEWLEAEFETVETRSADPFYISEETKKRLLAADAYWKGKTTSELATSYMAPETLRAMKHNFFTPGNYFYNGVGHVTVQYETVLAIGLNGVKEKVRKEMENCHFGDADYSTKMCFLESILISCDAVITYANRYAKMAEEMAEKETDAARRQELLTIARVCKNVPEFPAESFQEACQSFWFIQQVLQIESSGHSISPGRFDQYMYPYYEKDLKEGSLTREYAQELIDCIWVKLNDLNKCRDAASAEGFAGYSLFQNLIVGGQTVQGRDATNDLSFMCITASEHVFLPMPSLSIRVWHGSSKALLMRAAELTRTGIGLPAYYNDEVIIPALVHRGATMDEARNYNIIGCVEPQVPGKTDGWHDAAFFNMCRPLEMVFSNGYDNGEIASIQTGNVESFQSFDEFMEAYRKQMLYNIELMVNADNAIDYAHAKLAPLPFESCLVDDCIKRGMSAQEGGAIYNFTGPQGFGIANVADSLYTIKKLVFEEKRITMGELKKALEMNYGKGLDATTAGDIAMQVAKGLKDAGQEVGPDVIANTIRQVLEMELPEDVRKRYEEIHEMILELPKYGNDIDEVDELAREAAYFYTRPLETFKNPRGGMYQAGLYPVSANVPLGAQTGATPDGRLAHTPVADGVGPTSGFDISGPTASCNSVAKLDHAIASNGTLFNMKMHPTAMAGEKGLESFISLIRGYFDQQGMHMQFNVVDRATLLDAQAHPEKYSGLIVRVAGYSALFTTLSKSLQDDIIKRTEQADNR
B2: in data set [3], the Km is on record as 44 ± 4 mM and the kcat worked out at 330 ± 40 s⁻¹. Further, in data set [4], the Michaelis constant (Km) was 8 ± 1 mM and the kcat came to 1500 ± 100 s⁻¹.

A word on the Km: it is the substrate concentration at which the rate is half of its maximum. Usually kcat stands for the maximal rate divided by the concentration of active sites.

The values above are taken from article PMC5705181 (Science (New York, N.Y.), 2017).
